The results in this text go back to PMC7035337 (2020).

For the assay, the target named is T1, DSP_linker (Homo sapiens (Human), UniProt P15924).
T1 chain: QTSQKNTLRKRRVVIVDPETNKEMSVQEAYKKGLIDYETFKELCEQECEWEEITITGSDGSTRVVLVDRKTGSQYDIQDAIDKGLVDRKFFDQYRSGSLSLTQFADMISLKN
Description: MST.

B1: VIM_rod (protein)
chain 1: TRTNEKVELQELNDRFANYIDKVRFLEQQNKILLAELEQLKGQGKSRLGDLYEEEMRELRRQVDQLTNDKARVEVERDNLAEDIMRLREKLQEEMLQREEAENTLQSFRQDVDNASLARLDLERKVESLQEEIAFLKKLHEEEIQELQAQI
chain 2: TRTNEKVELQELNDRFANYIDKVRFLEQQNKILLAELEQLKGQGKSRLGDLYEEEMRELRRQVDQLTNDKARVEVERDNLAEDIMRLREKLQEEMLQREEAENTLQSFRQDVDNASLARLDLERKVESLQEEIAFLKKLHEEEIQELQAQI
For orientation: Kd means the constant that tells how readily two partners part at equilibrium. Low values mean tighter binding, high ones weaker binding. B1: the Kd was > 800 µM.
